Measurements from patent US6399759 (UNIVERSITY OF GEORGIA RESEARCH FOUNDATION, dated 2002).

How the values were obtained:
Experiment in all cases: cell-based or functional assay
Soli C2 = Soli C2 (Solenopsis invicta)
Soli E2 = molecular target: T1, Soli E2 (Solenopsis invicta)
T1 chain: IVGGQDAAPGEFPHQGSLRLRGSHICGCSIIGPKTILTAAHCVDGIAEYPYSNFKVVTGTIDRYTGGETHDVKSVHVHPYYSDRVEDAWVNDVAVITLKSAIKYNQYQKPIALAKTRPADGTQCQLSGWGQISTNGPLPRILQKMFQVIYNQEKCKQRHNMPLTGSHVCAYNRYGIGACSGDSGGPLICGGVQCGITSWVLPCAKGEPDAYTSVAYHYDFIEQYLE

Soli E1 = Soli E1 (Solenopsis invicta)
Soli E1 (Solenopsis invicta), sequence (main, as listed by the source): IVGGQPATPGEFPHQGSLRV

Soli C1 = Soli C1 (Solenopsis invicta)
Soli C1 (Solenopsis invicta), sequence (Q7SIG2 other isoform, or with tags, fused parts or gaps): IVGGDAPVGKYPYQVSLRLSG

Soli C2 (Solenopsis invicta), sequence (main, as listed by the source): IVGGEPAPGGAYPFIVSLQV

B1: Lima Bean Trypsin Inhibitor (other, UniProt P01056 1-83, looked up)
chain: SGHHEHSTDXPSXSSKPCCXHCACTKSIPPQCRCTDLRLDSCHSACKSCICTLSIPAQCVCXXIXDFCYEPCKSSHSDDDNNN
modifications: not fully specified
- IC50 (Soli C2): 1.46 nM
- IC50 (Soli E2): > 50 nM
- IC50 (Soli E1): > 50 nM
- IC50 (Soli C1): 18.4 nM
